# Measurements: paper PMC8048964 (Angewandte Chemie (International Ed. in English), 2021)
# Experiments:
# U2OS cells = test: Live-cell delivery to U2OS cells, confocal laser scanning microscopy; assay type: cell-based
# HeLa cells = test: Live-cell delivery to HeLa cells, CLSM and FiJi image analysis; assay type: cell-based; details: CLSM
substance,measurement,setting,value
TAMRA-SUMO2-cR10D [compound 15],signals in lysosomes or endosomes (punctuates) compared to analogue 14,"U2OS cells; 4 μM in PBS, 37 °C, 45 min, CLSM",significantly fewer signals
TAMRA-Ub(S20C(cR10D))-PA [compound 11],"live-cell delivery (TAMRA signal, CLSM)","U2OS cells; 2 μM in PBS, two independent sets of experiments (Figure S23)",significantly good
TAMRA‐Cys(cR10)‐Ub [compound 7],endosomal or lysosomal entrapment / cytosolic availability of protein,HeLa cells,cytosolic availability of protein was not improved
